Measured values reported in US20020168363A1, “Integrin/adhesion antagonists” (Amgen Inc., priority 2000, published 2002).

Target: GPIIb/IIIa (UniProt P08514)
Assay: inhibition of hu Fibrinogen-Ru binding

Fibrinogen gave an IC50 of 10.5 nM and a Ki of 5.26 nM.
